From IntAct's records for PubMed 21391237

B1: Transmembrane protein 43 (Homo sapiens), Q9BTV4 (parent)
chain: MAANYSSTSTRREHVKVKTSSQPGFLERLSETSGGMFVGLMAFLLSFYLIFTNEGRALKTATSLAEGLSLVVSPDSIHSVAPENEGRLVHIIGALRTSKLLSDPNYGVHLPAVKLRRHVEMYQWVETEESREYTEDGQVKKETRYSYNTEWRSEIINSKNFDREIGHKNPSAMAVESFMATAPFVQIGRFFLSSGLIDKVDNFKSLSLSKLEDPHVDIIRRGDFFYHSENPKYPEVGDLRVSFSYAGLSGDDPDLGPAHVVTVIARQRGDQLVPFSTKSGDTLLLLHHGDFSAEEVFHRELRSNSMKTWGLRAAGWMAMFMGLNLMTRILYTLVDWFPVFRDLVNIGLKAFAFCVATSLTLLTVAAGWLFYRPLWALLIAGLALVPILVARTRVPAKKLE
partner: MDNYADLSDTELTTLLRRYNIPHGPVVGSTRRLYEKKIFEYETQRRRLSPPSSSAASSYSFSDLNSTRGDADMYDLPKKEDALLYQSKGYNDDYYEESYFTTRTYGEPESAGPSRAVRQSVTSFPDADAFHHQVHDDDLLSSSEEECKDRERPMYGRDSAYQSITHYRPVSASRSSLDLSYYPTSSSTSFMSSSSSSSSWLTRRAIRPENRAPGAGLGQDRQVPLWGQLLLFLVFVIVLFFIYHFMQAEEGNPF
B2: Transmembrane protein 43 (Homo sapiens), Q9BTV4 (parent)
chain: B1 chain

Variants of: B1
Settings: with emd_human EMD

Variant	effect of a mutation on the interaction
I91V	with no effect
E85K	with no effect

Variants of: B1
Settings: with emd_human EMD
Remark: another data set of the same source

Variant	effect of a mutation on the interaction
I91V	decreasing interaction strength
E85K	decreasing interaction strength

Variants of: B2
Settings: with sun2_human SUN2, Q9UH99
Chain of sun2_human SUN2, Q9UH99 (Q9UH99 whole entry): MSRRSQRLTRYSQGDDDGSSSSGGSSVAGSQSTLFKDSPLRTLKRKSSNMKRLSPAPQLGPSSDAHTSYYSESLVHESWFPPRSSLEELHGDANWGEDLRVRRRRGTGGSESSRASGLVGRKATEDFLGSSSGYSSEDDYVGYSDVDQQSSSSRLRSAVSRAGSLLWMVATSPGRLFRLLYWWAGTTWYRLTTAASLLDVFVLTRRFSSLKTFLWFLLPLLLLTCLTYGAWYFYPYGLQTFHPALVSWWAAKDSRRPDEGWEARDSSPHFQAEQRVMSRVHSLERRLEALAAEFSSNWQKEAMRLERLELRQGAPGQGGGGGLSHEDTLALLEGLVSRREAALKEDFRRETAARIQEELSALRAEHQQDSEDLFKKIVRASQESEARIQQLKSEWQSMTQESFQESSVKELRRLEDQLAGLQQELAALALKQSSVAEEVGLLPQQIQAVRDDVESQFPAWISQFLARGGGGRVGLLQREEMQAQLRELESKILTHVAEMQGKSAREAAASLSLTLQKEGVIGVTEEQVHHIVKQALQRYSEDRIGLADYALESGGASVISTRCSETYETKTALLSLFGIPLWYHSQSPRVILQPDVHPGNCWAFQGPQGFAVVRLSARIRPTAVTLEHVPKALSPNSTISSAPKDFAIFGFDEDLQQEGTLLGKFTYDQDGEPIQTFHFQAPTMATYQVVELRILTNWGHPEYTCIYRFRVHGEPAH

Variant	effect of a mutation on the interaction
I91V	decreasing interaction strength
E85K	decreasing interaction strength
